Test results as given in IntAct's records for PubMed 21816274.

B1: Gem-associated protein 2 (Homo sapiens), O14893 (parent)
chain: MRRAELAGLKTMAWVPAESAVEELMPRLLPVEPCDLTEGFDPSVPPRTPQEYLRRVQIEAAQCPDVVVAQIDPKKLKRKQSVNISLSGCQPAPEGYSPTLQWQQQQVAQFSTVRQNVNKHRSHWKSQQLDSNVTMPKSEDEEGWKKFCLGEKLCADGAVGPATNESPGIDYVQIGFPPLLSIVSRMNQATVTSVLEYLSNWFGERDFTPELGRWLYALLACLEKPLLPEAHSLIRQLARRCSEVRLLVDSKDDERVPALNLLICLVSRYFDQRDLADEPS

Variants of: B1
Conditions: with smn_human SMN1, Q16637
Chain of smn_human SMN1, Q16637 (Q16637 whole entry): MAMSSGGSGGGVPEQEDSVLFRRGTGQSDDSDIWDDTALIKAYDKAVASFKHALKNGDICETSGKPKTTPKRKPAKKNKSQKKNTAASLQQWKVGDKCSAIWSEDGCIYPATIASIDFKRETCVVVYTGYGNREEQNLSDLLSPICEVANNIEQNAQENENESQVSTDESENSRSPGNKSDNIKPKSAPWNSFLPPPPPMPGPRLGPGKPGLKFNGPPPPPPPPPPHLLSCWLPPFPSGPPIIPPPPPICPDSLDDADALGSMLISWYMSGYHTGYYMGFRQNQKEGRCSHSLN

Row | Variant | effect of a mutation on the interaction
1 | MRRAELAGLKTMAWVPAESAVEELMPRLLPVEPCDLTEGFDPSVPPRTPQEYLRRVQIEAAQCPDVVVAQIDPKKLKRKQSVNISLSGCQPAPEGYSPTLQWQQQQVAQFSTVRQNVNKHRSHWKSQQLDSNVTMPKSEDEEGWKKFCLGEKLCADGAVGPATNESPGIDYVQIGFPPLLSIVSRMNQATVTSVLEYLSNWFGERDFTPELGDWLYALLACLEKPLLPEAHSLIRQLARRCSEVRLLVDSKDDERVPALNLLICLVSRYFDQRDLADEPS [R213D] | disrupting interaction
